According to patent publication US20210161943A1, “PAK4 INHIBITORS AND METHODS OF USE” (THE REGENTS OF THE UNIVERSITY OF CALIFORNIA, priority 2018, published 2021):

Columns and labels:
MC38 WT tumors = assay: Tumor growth of MC38 WT colon adenocarcinoma tumors in C57BL/6 mice; format: in vivo; details: for tumor growth versus anti-PD-1 monotherapy: MC38 WT tumors, PAK4 inhibitor twice daily from days 4 to 7, P<0.05 days 7, 10 (day 14 only combination)
Method: All mouse studies were performed under UCLA Animal Research Committee protocol #2004-159-23. C57BL/6 mice were bred and kept under defined-flora pathogen-free conditions at the Association for Assessment and Accreditation of Laboratory Animal Care approved animal facility of the Division of Experimental Radiation Oncology, UCLA. To study the in vivo effect of PD-1 blockade in anti-tumor response and immune cell infiltration, we subcutaneously (s.c.) injected 0.3×10^6 B16 PAK4 KO melanoma cells or MC38 PAK4 KO cells into the flanks of C57BL/6 syngeneic mice. 96 hours after tumor injection mice were randomly assigned into the different groups. Anti PD-1 (Cat. No. BE0146, clone RMP1-14, BioXCell, West Lebanon, N.H.) treatment was injected intraperitoneally three times per week at 200 μg per dose. For CD8 depletion studies, we administered anti-CD8 (Cat. No. BE0117, clone YST 169.4, BioXCell) one day before anti-PD1 treatment and then it was co-administered with anti-PD1 for a total of four doses. Splenocytes from control and CD8 depleted mice were taken to validate CD8 depletion efficacy (FIGS. 14-15). To study the combination effects of PAK4 inhibition (KPT-9274) and anti-PD-1 (Cat. No. BE0146, clone RMP1-14, BioXCell) in immune cell infiltration and anti-tumor response, 0.5×10^6 B16 WT or MC38 WT cells were injected s.c. into the flanks of C57BL/6 mice. 96 hours after tumor injection mice were randomly assigned into the different groups. PAK4 inhibitor was administered twice a day by oral gavage at 150 mg/kg while anti-PD-1 treatment was administered as described above. Tumor progression was monitored three times per week by measuring two perpendicular dimensions with a calliper.

[1] = test system: Wnt/β-catenin-mediated transcription in PAK4 KO cells; assay: Topflash/Fopflash WNT activity luciferase assay, B16 PAK4 KO cells; format: cell-based, murine; details: Wnt-3a 200 ng/mL, 8 hours
Method: (§1) For Topflash WNT activity assay cells were plated in 24 well plates and were co-transfected with pSV-β-galactosidase control vector (PR-E1081, Promega, Madison, Wis.) along with either pTopflash (Addgene, Cat. No. 12456) or pFopflash (Addgene, Cat. No. 12457). 24 hours after transfection, cells were treated with Wnt-3a (R&D Systems, Minneapolins, Minn.) at 200 ng/mL. After 8 hours, cells were harvested using Reporter Lysis Buffer (Promega, Cat. No. PR-E4030) and luciferase activity was measured using Bright-Glo Luciferase Assay System (Promega, Cat. No. PR-E2610) and Beta-Glo Assay System (Promega, Cat. No. PR-E4720). Luciferase activity was normalized to its corresponding Beta-Glo activity to account for transfection efficiency.

[2] = test system: Wnt/β-catenin-mediated transcription in B16 WT CRISPR control cells; assay: Topflash/Fopflash WNT activity luciferase assay, B16 WT CRISPR control cells; format: cell-based, murine; details: Wnt-3a 200 ng/mL, 8 hours
Method: as §1

Molecule: Nc1ccc(/C=C/C(=O)NCc2cc3cc(-c4ccc(C(=O)N5CCC(F)(F)CC5)cc4)cc(-c4ccc(F)cc4)c3o2)cn1 [KPT-9274]
- tumor growth versus anti-PD-1 monotherapy (MC38 WT tumors; listed as PAK4i): significant decreased tumor growth compared to anti-PD-1 alone
- tumor growth versus anti-PD-1 monotherapy (MC38 WT tumors; listed as PAK4 inhibitor): decreased tumor growth compared to the anti-PD-1 monotherapy group
- PAK4 inhibitor associated toxicity (MC38 WT tumors; mice bearing MC38 WT tumors, PAK4 inhibitor 150 mg/kg twice daily oral gavage, days 4 to 7): discontinued due to PAK4i associated toxicity

B1: Wnt-3a: Wnt-3a (R&D Systems), used at 200 ng/mL (protein, UniProt P56704 19-352, looked up)
Protein Wnt-3a: SYPIWWSLAVGPQYSSLGSQPILCASIPGLVPKQLRFCRNYVEIMPSVAEGIKIGIQECQHQFRGRRWNCTTVHDSLAIFGPVLDKATRESAFVHAIASAGVAFAVTRSCAEGTAAICGCSSRHQGSPGKGWKWGGCSEDIEFGGMVSREFADARENRPDARSAMNRHNNEAGRQAIASHMHLKCKCHGLSGSCEVKTCWWSQPDFRAIGDFLKDKYDSASEMVVEKHRESRGWVETLRPRYTYFKVPTERDLVYYEASPNFCEPNPETGSFGTRDRTCNVSSHGIDGCDLLCCGRGHNARAERRREKCRCVFHWCCYVSCQECTRVYDVHTCK
- induction of Topflash luciferase activity ([1]; PAK4 KO cells versus B16 WT control): significantly reduced
- Fopflash luciferase activity (mutant TCF-binding sites) ([1]; PAK4 KO cells): did not induce
- Topflash luciferase activity ([2]; B16 WT CRISPR control cells): significantly induced
- Fopflash luciferase activity (mutant TCF-binding sites) ([2]; B16 WT cells): did not induce
